The target in one test is T1, M. smegmatis DNA gyrase (Mycolicibacterium smegmatis, UniProt Q59556).
T1 construct: made in house
As to the kind of experiment: DNA supercoiling assay, M. smegmatis DNA gyrase. The test is classed as biochemical.

The subject of test [1] is DNA gyrase from ciprofloxacin resistant M. smegmatis mc^2155 strain. Type of test: biochemical.
Test [2] concerns ciprofloxacin resistant M. smegmatis mc^2155 strain. Put plainly: Ciprofloxacin susceptibility (MIC50) of resistant strain. Type of test: cell-based. The note with it: Mycolicibacterium smegmatis.
In test [3] the target is T2, M. smegmatis DNA gyrase A subunit (GyrA) (Mycobacterium smegmatis, UniProt P48354 1-842).
T2 construct: also called M. smegmatis GyrA
T2 sequence (P48354 whole entry): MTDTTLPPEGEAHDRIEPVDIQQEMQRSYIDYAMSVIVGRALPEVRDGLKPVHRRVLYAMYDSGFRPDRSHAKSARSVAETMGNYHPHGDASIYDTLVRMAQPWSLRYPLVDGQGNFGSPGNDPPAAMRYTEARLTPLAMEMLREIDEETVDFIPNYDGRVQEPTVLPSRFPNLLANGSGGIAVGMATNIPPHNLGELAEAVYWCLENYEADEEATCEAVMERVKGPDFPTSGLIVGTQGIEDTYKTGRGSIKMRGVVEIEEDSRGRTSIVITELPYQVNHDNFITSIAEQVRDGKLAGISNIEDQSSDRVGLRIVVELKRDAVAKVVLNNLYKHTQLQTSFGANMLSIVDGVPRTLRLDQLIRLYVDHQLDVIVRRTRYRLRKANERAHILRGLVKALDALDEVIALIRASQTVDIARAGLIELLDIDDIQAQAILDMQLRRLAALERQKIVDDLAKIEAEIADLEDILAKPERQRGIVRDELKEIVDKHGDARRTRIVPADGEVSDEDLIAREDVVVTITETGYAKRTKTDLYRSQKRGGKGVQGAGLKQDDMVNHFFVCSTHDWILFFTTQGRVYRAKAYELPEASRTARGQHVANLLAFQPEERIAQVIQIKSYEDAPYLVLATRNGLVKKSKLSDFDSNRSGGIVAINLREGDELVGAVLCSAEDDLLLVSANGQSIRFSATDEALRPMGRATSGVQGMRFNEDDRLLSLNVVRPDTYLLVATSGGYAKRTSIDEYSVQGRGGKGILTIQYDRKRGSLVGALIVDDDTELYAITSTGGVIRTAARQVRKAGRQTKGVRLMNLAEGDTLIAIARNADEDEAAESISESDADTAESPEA
As to the kind of experiment: SPR (BIAcore 2000), M. smegmatis GyrA immobilized on CM5 chip.
Description: Binding parameters were determined by Surface Plasmon Resonance (SPR) spectroscopy using a BIAcore 2000 system, Uppsala, Sweden. The over-expressed and purified M. smegmatis GyrA was immobilized on the CM5 sensor chip at a concentration of 400 resonance units (RU) as per manufacturer's instructions. All measurements were carried out in a continuous flow of HBS buffer (10 mM HEPES, 150 mM NaCl, 5 mM EDTA and 0.05 % Surfactant P-20, pH 7.4) at 10 μl/min. […] The kinetic data were analyzed using the BIA evaluation software (Version 3.0). The surface was regenerated by a pulse of 5 μL of 100 mM NaOH for further experimentation as required.

≈ marks a conversion by molar mass, not a printed value.

T1 sequence (Q59556 whole entry): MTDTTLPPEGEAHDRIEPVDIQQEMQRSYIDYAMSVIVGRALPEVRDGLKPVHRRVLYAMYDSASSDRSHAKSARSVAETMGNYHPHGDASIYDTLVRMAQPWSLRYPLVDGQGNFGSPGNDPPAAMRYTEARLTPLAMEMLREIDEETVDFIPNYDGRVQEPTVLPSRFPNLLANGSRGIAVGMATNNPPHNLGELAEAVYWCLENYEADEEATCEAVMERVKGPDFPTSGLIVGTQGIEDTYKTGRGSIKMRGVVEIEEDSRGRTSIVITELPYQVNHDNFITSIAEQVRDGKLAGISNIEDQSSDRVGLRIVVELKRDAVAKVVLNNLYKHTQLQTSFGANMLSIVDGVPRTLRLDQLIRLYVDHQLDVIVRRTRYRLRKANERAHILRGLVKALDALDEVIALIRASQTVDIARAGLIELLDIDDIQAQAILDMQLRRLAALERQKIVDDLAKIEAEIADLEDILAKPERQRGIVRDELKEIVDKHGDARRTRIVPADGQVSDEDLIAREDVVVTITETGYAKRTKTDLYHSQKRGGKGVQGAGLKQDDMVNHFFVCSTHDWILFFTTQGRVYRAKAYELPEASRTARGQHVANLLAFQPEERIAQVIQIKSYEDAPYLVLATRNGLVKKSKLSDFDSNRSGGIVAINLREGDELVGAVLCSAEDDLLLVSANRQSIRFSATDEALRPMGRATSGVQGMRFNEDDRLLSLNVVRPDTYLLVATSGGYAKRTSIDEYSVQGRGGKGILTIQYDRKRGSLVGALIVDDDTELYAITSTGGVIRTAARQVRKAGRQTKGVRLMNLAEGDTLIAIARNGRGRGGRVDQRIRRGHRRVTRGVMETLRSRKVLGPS
T1 sequence (P0C559 2-675, further chain): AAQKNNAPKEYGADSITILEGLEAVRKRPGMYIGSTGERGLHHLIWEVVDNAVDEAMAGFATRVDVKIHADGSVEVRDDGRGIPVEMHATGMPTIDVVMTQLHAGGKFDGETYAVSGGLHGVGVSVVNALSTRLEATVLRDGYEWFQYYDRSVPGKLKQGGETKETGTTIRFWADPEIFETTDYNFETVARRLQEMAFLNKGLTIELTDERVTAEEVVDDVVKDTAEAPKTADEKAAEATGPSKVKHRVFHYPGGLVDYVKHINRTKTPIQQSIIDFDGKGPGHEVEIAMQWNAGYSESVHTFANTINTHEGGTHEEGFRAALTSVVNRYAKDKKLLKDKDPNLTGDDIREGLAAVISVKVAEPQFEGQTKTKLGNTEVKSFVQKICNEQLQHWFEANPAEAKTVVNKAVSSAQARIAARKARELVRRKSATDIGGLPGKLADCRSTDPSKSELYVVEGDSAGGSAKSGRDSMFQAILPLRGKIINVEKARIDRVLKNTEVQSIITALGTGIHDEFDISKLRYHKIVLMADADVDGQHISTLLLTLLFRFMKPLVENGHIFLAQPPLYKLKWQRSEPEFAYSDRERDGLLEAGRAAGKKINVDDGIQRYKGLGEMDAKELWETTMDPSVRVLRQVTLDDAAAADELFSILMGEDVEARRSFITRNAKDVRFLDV

As for KASGYSFTVYYIYWVK [CDR:H1], in the test with M. smegmatis DNA gyrase (supercoiling activity), the “peptide concentration for complete inhibition of enzyme activity” value was in the range of 5 to 10 µM. In addition, the “concentration at which DNA supercoiling activity was inhibited” value in test [1] is 10 µM.

`O=C(O)c1cn(C2CC2)c2cc(N3CCNCC3)c(F)cc2c1=O` [ciprofloxacin, reference compound]: on M. smegmatis DNA gyrase, the IC50 (as a rule, the concentration needed to halve the response being measured) was ~15.1 µM. In test [2], the MIC50 (commonly an inhibitory concentration at the 50% level, which refers to growth in some studies and to a panel of isolates in others) turned out to be 64 µg/mL (≈ 193 µM).

B1: scFv:GyrA, engineered single chain antibody of MsGyrA:C3 (scFv)
scFv: AQVKLQQSGAELVRPGASVKLSCKASGYSFTVYYIYWVKQRPGQALEWIGEINPSNGGTNFNEKFKTKATLTVDKSTSTVYMQLSSLTSEDSAVYYCTRWGLRRGFAYWGQGTTVTVSSSGGGSGGGGSGGGGSDIELTQSPKSMSMSVGERVTLSCKASENVGTHVSWYQQRPEESPKLLIYGASNRYTGVPDRFTGSGSATDFTLTISNVQAEDLADYHCGQTYSYPFTFGLGTKLEIKRAAAGAPVPYPDPLEPRAA
notes: also called ScFV:GyraA; soluble scFv
With B1, the equilibrium dissociation constant (Kd) (commonly the equilibrium constant for the complex coming apart) in test [3] was 0.000217 µM.

B2: scFv:GyrA: engineered single chain antibody fragment of MsGyrA:C3, monovalent 30 kDa polypeptide, Seq. ID #2, encoded by pVNUHMscFv (protein)
scFv: AQVKLQQSGAELVRPGASVKLSCKASGYSFTVYYIYWVKQRPGQALEWIGEINPSNGGTNFNEKFKTKATLTVDKSTSTVYMQLSSLTSEDSAVYYCTRWGLRRGFAYWGQGTTVTVSSSGGGSGGGGSGGGGSDIELTQSPKSMSMSVGERVTLSCKASENVGTHVSWYQQRPEESPKLLIYGASNRYTGVPDRFTGSGSATDFTLTISNVQAEDLADYHCGQTYSYPFTFGLGTKLEIKRAAAGAPVPYPDPLEPRAA
For the molecule B2, the “concentration at which the supercoiling reaction was inhibited” value in the test with M. smegmatis DNA gyrase fell in the range of 10 to 20 nM. For the same molecule, the “inhibition of DNA gyrase supercoiling activity” value with M. smegmatis DNA gyrase (enzyme preincubated with antibody, relaxed pUC18 DNA) is recorded as “inhibited”. Also, the “concentration at which DNA supercoiling activity was inhibited” value in test [1] came to 0.05 µM.
